The text below walks through data of doi:10.1101/2025.09.08.674899 (bioRxiv, 2025).

For the assay, the target named is T1, PSAF subunit of Chlamydomonas reinhardtii Photosystem I (Chlamydomonas reinhardtii (endogenous …, UniProt P12356 63-227)).
T1 sequence (looked up): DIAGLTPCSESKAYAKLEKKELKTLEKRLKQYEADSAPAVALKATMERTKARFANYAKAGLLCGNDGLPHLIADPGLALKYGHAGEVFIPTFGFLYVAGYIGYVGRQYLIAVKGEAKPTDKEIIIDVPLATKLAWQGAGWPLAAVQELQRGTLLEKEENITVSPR
The experiment in a line: cross-linking.

B1: Chlamydomonas reinhardtii cytochrome c6 E71Q (natural protein)
chain: ADLALGAQVFNGNCAACHMGGRNSVMPEKTLDKAALEQYLDGGFKVESIIYQVENGKGAMPAWADRLSEEQIQAVAEYVFKQATDAAWKY
modifications: heme (c-type cytochrome)
Turning to B1, the binding result was “binds”.
